Experimental findings from the Human Domainome abundance scans (Beltran et al. 2025) are described below.

± gives the uncertainty stated by the source.

A short description of the data set: abundance fitness (aPCA) (normalised: wild type 0, dead -1); higher = more abundant; growth selection in yeast, the domain comes from the species named. The settings on record: Homo sapiens.
Substance “Lipoamide acyltransferase component of branched-chain alpha-keto acid dehydrogenase complex, mitochondrial Q212T, P11182” had an abundance fitness of 0.017 ± 0.06.

Consider “Lipoamide acyltransferase component of branched-chain alpha-keto acid dehydrogenase complex, mitochondrial Q212V, P11182”, for which the abundance fitness was -0.075 ± 0.038.

Consider “Lipoamide acyltransferase component of branched-chain alpha-keto acid dehydrogenase complex, mitochondrial Q212W, P11182”, for which the abundance fitness is -0.218 ± 0.046.

For “Lipoamide acyltransferase component of branched-chain alpha-keto acid dehydrogenase complex, mitochondrial Q212Y, P11182”, the abundance fitness came out at 0.108 ± 0.44.

“Lipoamide acyltransferase component of branched-chain alpha-keto acid dehydrogenase complex, mitochondrial R178A, P11182” displayed an abundance fitness of -0.028 ± 0.043.

The substance “Lipoamide acyltransferase component of branched-chain alpha-keto acid dehydrogenase complex, mitochondrial R178C, P11182” yielded an abundance fitness of -0.173 ± 0.083.

For the substance “Lipoamide acyltransferase component of branched-chain alpha-keto acid dehydrogenase complex, mitochondrial R178D, P11182”, the abundance fitness is -0.626 ± 0.076.

“Lipoamide acyltransferase component of branched-chain alpha-keto acid dehydrogenase complex, mitochondrial R178E, P11182” had an abundance fitness of -0.022 ± 0.053.

On to “Lipoamide acyltransferase component of branched-chain alpha-keto acid dehydrogenase complex, mitochondrial R178F, P11182”, for which the abundance fitness was -0.261 ± 0.1.

For the substance “Lipoamide acyltransferase component of branched-chain alpha-keto acid dehydrogenase complex, mitochondrial R178G, P11182”, the abundance fitness was -0.361 ± 0.046.

On to “Lipoamide acyltransferase component of branched-chain alpha-keto acid dehydrogenase complex, mitochondrial R178H, P11182”, for which the abundance fitness is -0.1 ± 0.072.

Consider “Lipoamide acyltransferase component of branched-chain alpha-keto acid dehydrogenase complex, mitochondrial R178I, P11182”, for which the abundance fitness was 0.002 ± 0.059.

On to “Lipoamide acyltransferase component of branched-chain alpha-keto acid dehydrogenase complex, mitochondrial R178K, P11182”, for which the abundance fitness came out at 0.051 ± 0.058.

In turn, “Lipoamide acyltransferase component of branched-chain alpha-keto acid dehydrogenase complex, mitochondrial R178L, P11182” gave an abundance fitness of -0.165 ± 0.038.

Consider “Lipoamide acyltransferase component of branched-chain alpha-keto acid dehydrogenase complex, mitochondrial R178M, P11182”, for which the abundance fitness is -0.035 ± 0.048.

In turn, “Lipoamide acyltransferase component of branched-chain alpha-keto acid dehydrogenase complex, mitochondrial R178N, P11182” registered an abundance fitness of -0.241 ± 0.071.

As for “Lipoamide acyltransferase component of branched-chain alpha-keto acid dehydrogenase complex, mitochondrial R178P, P11182”, the abundance fitness is -1.38 ± 0.33.

As to “Lipoamide acyltransferase component of branched-chain alpha-keto acid dehydrogenase complex, mitochondrial R178Q, P11182”, the abundance fitness was -0.024 ± 0.064.

Substance “Lipoamide acyltransferase component of branched-chain alpha-keto acid dehydrogenase complex, mitochondrial R178S, P11182” yielded an abundance fitness of -0.081 ± 0.057.

For the substance “Lipoamide acyltransferase component of branched-chain alpha-keto acid dehydrogenase complex, mitochondrial R178T, P11182”, the abundance fitness was -0.114 ± 0.067.

In turn, “Lipoamide acyltransferase component of branched-chain alpha-keto acid dehydrogenase complex, mitochondrial R178W, P11182” yielded an abundance fitness of -0.27 ± 0.053.

Substance “Lipoamide acyltransferase component of branched-chain alpha-keto acid dehydrogenase complex, mitochondrial R179A, P11182” returned an abundance fitness of -0.048 ± 0.042.

As to “Lipoamide acyltransferase component of branched-chain alpha-keto acid dehydrogenase complex, mitochondrial R179D, P11182”, the abundance fitness was -0.228 ± 0.11.

“Lipoamide acyltransferase component of branched-chain alpha-keto acid dehydrogenase complex, mitochondrial R179E, P11182” returned an abundance fitness of 0.011 ± 0.068.

Turning to “Lipoamide acyltransferase component of branched-chain alpha-keto acid dehydrogenase complex, mitochondrial R179G, P11182”, the abundance fitness is -0.257 ± 0.038.

Turning to “Lipoamide acyltransferase component of branched-chain alpha-keto acid dehydrogenase complex, mitochondrial R179H, P11182”, the abundance fitness was -0.368 ± 0.14.

“Lipoamide acyltransferase component of branched-chain alpha-keto acid dehydrogenase complex, mitochondrial R179I, P11182”: the abundance fitness was -0.248 ± 0.059.

Substance “Lipoamide acyltransferase component of branched-chain alpha-keto acid dehydrogenase complex, mitochondrial R179K, P11182” came in with an abundance fitness of -0.021 ± 0.052.

Take “Lipoamide acyltransferase component of branched-chain alpha-keto acid dehydrogenase complex, mitochondrial R179L, P11182”: the abundance fitness is -0.083 ± 0.042.

“Lipoamide acyltransferase component of branched-chain alpha-keto acid dehydrogenase complex, mitochondrial R179M, P11182” registered an abundance fitness of -0.087 ± 0.055.

“Lipoamide acyltransferase component of branched-chain alpha-keto acid dehydrogenase complex, mitochondrial R179N, P11182”: the abundance fitness is -0.156 ± 0.079.

As to “Lipoamide acyltransferase component of branched-chain alpha-keto acid dehydrogenase complex, mitochondrial R179P, P11182”, the abundance fitness was -1.11 ± 0.085.

The substance “Lipoamide acyltransferase component of branched-chain alpha-keto acid dehydrogenase complex, mitochondrial R179Q, P11182” gave an abundance fitness of 0 ± 0.051.

For “Lipoamide acyltransferase component of branched-chain alpha-keto acid dehydrogenase complex, mitochondrial R179S, P11182”, the abundance fitness is -0.212 ± 0.057.

“Lipoamide acyltransferase component of branched-chain alpha-keto acid dehydrogenase complex, mitochondrial R179T, P11182” came in with an abundance fitness of -0.304 ± 0.091.

As for “Lipoamide acyltransferase component of branched-chain alpha-keto acid dehydrogenase complex, mitochondrial R179W, P11182”, the abundance fitness is -0.28 ± 0.049.

The substance “Lipoamide acyltransferase component of branched-chain alpha-keto acid dehydrogenase complex, mitochondrial R199A, P11182” registered an abundance fitness of 0.016 ± 0.045.

“Lipoamide acyltransferase component of branched-chain alpha-keto acid dehydrogenase complex, mitochondrial R199C, P11182”: the abundance fitness is -0.054 ± 0.065.

Take “Lipoamide acyltransferase component of branched-chain alpha-keto acid dehydrogenase complex, mitochondrial R199E, P11182”: the abundance fitness amounted to 0.088 ± 0.048.

In the case of “Lipoamide acyltransferase component of branched-chain alpha-keto acid dehydrogenase complex, mitochondrial R199G, P11182”, the abundance fitness is -0.204 ± 0.036.

The substance “Lipoamide acyltransferase component of branched-chain alpha-keto acid dehydrogenase complex, mitochondrial R199I, P11182” yielded an abundance fitness of -0.142 ± 0.09.

The substance “Lipoamide acyltransferase component of branched-chain alpha-keto acid dehydrogenase complex, mitochondrial R199K, P11182” returned an abundance fitness of -0.033 ± 0.051.

Substance “Lipoamide acyltransferase component of branched-chain alpha-keto acid dehydrogenase complex, mitochondrial R199L, P11182” registered an abundance fitness of -0.173 ± 0.04.

“Lipoamide acyltransferase component of branched-chain alpha-keto acid dehydrogenase complex, mitochondrial R199M, P11182” returned an abundance fitness of -0.088 ± 0.088.

“Lipoamide acyltransferase component of branched-chain alpha-keto acid dehydrogenase complex, mitochondrial R199P, P11182” displayed an abundance fitness of -0.784 ± 0.079.

Substance “Lipoamide acyltransferase component of branched-chain alpha-keto acid dehydrogenase complex, mitochondrial R199Q, P11182” had an abundance fitness of 0.045 ± 0.045.
